The text below walks through data of publication PMC5138093 (Journal of molecular biology, 2016).

The series deals with the molecule itself. Kind of series: non-reducing SDS-PAGE and western blot. A general note: Immunoblotting shows a protein as a band on a membrane.

B1: GST fusion of the extracellular domain of IGPR-1 (GST-E-IGPR-1) (domain or fragment, human, UniProt Q96BF3 23-150, looked up)
chain: LSVQQGPNLLQVRQGSQATLVCQVDQATAWERLRVKWTKDGAILCQPYITNGSLSLGVCGPQGRLSWQAPSHLTLQLDPVSLNHSGAYVCWAAVEIPELEEAEGNITRLFVDPDDPTQNRNRIASFPG
On to B1, for which the binding result is recorded as “binds”.
